Source: the supplement of paper PMC9732359
± gives the uncertainty stated by the source.

Assay: protein stability index of a GFP-peptide fusion (yeast GPS) (PSI 1-4); higher = more stable; sorted into four equal gates, so the index is relative within each strain
Summary of the method: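 The protein stability index combines read frequencies across sorting gates, each weighted by its gate number and then summed. To obtain those frequencies, a pooled yeast library of GFP fusions to tiled 17-residue yeast protein peptides, on a plasmid also expressing Cherry, was grown to mid-log phase in leucine-free medium. The cells were sorted into four equal gates by GFP/Cherry ratio before plasmid amplification by PCR and Illumina sequencing.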

Sequence | protein stability index (doa10∆) | protein stability index (pdr5∆) | protein stability index (san1∆) | protein stability index (ubr1∆)
IQEIKESVELPLTHPEL [RPT2] | 2.7 ± 0.073 | 2.97 ± 0.069 | 2.74 ± 0.068 | 2.75 ± 0.035
LYVVGLFDTYHASKAIG [RRP6] | 1.91 ± 0.045 | 2.38 ± 0.043 | 1.88 ± 0.069 | 2.49 ± 0.035
TKSMVKIAEQYSKRIEE [RPN11] | 2.32 ± 0.075 | 1.94 ± 0.052 | 2.03 ± 0.1 | 2.28 ± 0.067
KSGTSHDAIFSIYKYIH [SNF12] | 2.51 ± 0.059 | 2.66 ± 0.054 | 2.34 ± 0.068 | 2.2 ± 0.046
PVDITMMENYQNISPVY [PRP8] | 2.28 ± 0.049 | 1.99 ± 0.06 | 2.2 ± 0.071 | 2.06 ± 0.038
SDNNSRIMSRNFYLKRF [SWI1] | 2.73 ± 0.066 | 2.67 ± 0.079 | 2.95 ± 0.099 | 3.09 ± 0.063
NTLLISGPFKVNGVPLR [RPL6A] | 2.25 ± 0.074 | 2.36 ± 0.059 | 2.28 ± 0.076 | 2.72 ± 0.04
DTKDALSTRELAGKVGS [RPC53] | 2.8 ± 0.08 | 2.27 ± 0.084 | 2.79 ± 0.1 | 3.08 ± 0.071
EVIGYIAAGTYGKVYKA [SSN3] | 2.01 ± 0.05 | 2.25 ± 0.042 | 2.17 ± 0.069 | 1.9 ± 0.045
KKRSKARKETYSSYIYK [HTB1] | 2.84 ± 0.24 | 2.9 ± 0.15 |  | 2.95 ± 0.15
KRQELEEASQQQQLQQN [MED2] | 2.75 ± 0.056 | 2.65 ± 0.083 | 2.48 ± 0.059 | 2.63 ± 0.061
PNCPRPNMSICIFGDAF [RPL1A] | 1.75 ± 0.083 | 1.55 ± 0.06 | 1.55 ± 0.2 | 1.53 ± 0.04
SLQRSKSSFVKESAVIS [SMC1] | 2.04 ± 0.11 | 2.27 ± 0.047 | 2.17 ± 0.067 | 2.29 ± 0.039
GIDPQDLKKLNLNVYIQ [CDC53] | 1.68 ± 0.14 | 1.7 ± 0.12 | 1.42 ± 0.1 | 1.19 ± 0.083
DENKASATSKPAFSFGA [YJL041W/NSP1] | 2.96 ± 0.063 | 2.98 ± 0.055 | 3 ± 0.05 | 2.97 ± 0.055
VEDGNILVFQVSMKANK [RPL25] | 2.58 ± 0.043 | 2.46 ± 0.047 | 2.5 ± 0.047 | 2.69 ± 0.037
HDSSNGLFQVLHNFESV [NUT1] | 3.16 ± 0.064 | 3.15 ± 0.064 | 2.79 ± 0.07 | 3.242 ± 0.031
KIDIIELQKSLSLEEVE [FAS1] | 2.92 ± 0.14 | 2.62 ± 0.15 | 2.52 ± 0.077 | 2.79 ± 0.088
GMRVGVDRSKYNIELPL [RPT1] |  |  | 3.52 ± 0.16 | 
TLDRNTAAETFKLFNKY [RPL8A] | 3.03 ± 0.088 | 3.19 ± 0.068 | 3.08 ± 0.082 | 2.94 ± 0.066
FDYSVILNSIPAAANLD [YJL039C/NUP192] | 1.48 ± 0.051 | 1.44 ± 0.083 | 1.71 ± 0.079 | 1.26 ± 0.047
STCIVSLIRNNLHAEGW [ECM29] | 1.21 ± 0.052 | 1.47 ± 0.068 | 2 ± 0.077 | 1.64 ± 0.067
VYYSKRGFKVGLVCADT [SRP54] | 2.41 ± 0.12 | 2.29 ± 0.073 | 2.19 ± 0.098 | 2.5 ± 0.054
NDINISSIENNINNNIN [MED2] | 2.87 ± 0.044 | 3 ± 0.047 | 2.86 ± 0.041 | 3.11 ± 0.039
MAKKEGTPKTDSFIFDG [MED4] | 3.43 ± 0.13 | 3.22 ± 0.15 | 2.94 ± 0.17 | 3.28 ± 0.092
SMFSGLDSTGFDSTAFN [MED2] | 3.05 ± 0.044 | 3.17 ± 0.042 | 3.19 ± 0.034 | 3.104 ± 0.03

Sequence | protein stability index (doa10∆) | protein stability index (pdr5∆) | protein stability index (san1∆) | protein stability index (ubr1∆)
SFLFSAIPLQQVLSQSA [SWI1] | 1.58 ± 0.054 | 1.43 ± 0.064 | 1.28 ± 0.091 | 1.39 ± 0.034
TSDPVMHKQLAYILAAQ [RPN1] | 1.68 ± 0.15 | 2.52 ± 0.17 |  | 2.1 ± 0.11
YSDIGGLESQIQEIKES [RPT2] | 1.8 ± 0.095 | 1.97 ± 0.08 | 1.88 ± 0.096 | 2.52 ± 0.091
DSFIEKIIPKDISATQL [ITC1] | 2.96 ± 0.1 | 3.17 ± 0.12 | 3.07 ± 0.086 | 3.13 ± 0.085
IELKTDWVRFLALALGI [RPN1] | 1.38 ± 0.13 | 1.37 ± 0.077 | 1.41 ± 0.12 | 1.13 ± 0.067
GQVSMSQFNGSGNGSNP [PGD1] | 3.3 ± 0.11 | 3.3 ± 0.12 | 2.93 ± 0.077 | 3.2 ± 0.068
LNSLKDERSQGEKNFTS [SMC4] | 3.41 ± 0.12 | 3.3 ± 0.25 | 3.05 ± 0.087 | 3.5 ± 0.11
APAFHTSGKVELPKKLL [SRB8] |  |  | 2.93 ± 0.2 | 2.84 ± 0.12
NTLYTAIITDDLDTVLK [SRP72] | 2.19 ± 0.039 | 2.5 ± 0.031 | 2.44 ± 0.041 | 2.6 ± 0.035
EVSALVRSLPKEEQPKQ [PRP8] | 1.23 ± 0.075 | 1.38 ± 0.082 | 1.26 ± 0.12 | 1.08 ± 0.051
TPGLTFNAIDLARHLPA [RPC82] | 2.71 ± 0.069 | 2.73 ± 0.061 | 2.77 ± 0.056 | 3.21 ± 0.075
VEEDHTLGNALRYVIMK [RPC19] | 3.08 ± 0.11 | 2.75 ± 0.071 | 2.54 ± 0.085 | 2.73 ± 0.063
YCKGKTCRKHTQHKVTQ [RPL42A] | 2.77 ± 0.094 | 3.06 ± 0.17 | 2.54 ± 0.12 | 2.91 ± 0.14
TFIKDCLFTKCLEDPEK [POP4] | 1.57 ± 0.11 | 1.78 ± 0.091 | 1.57 ± 0.18 | 1.83 ± 0.061
VGLRSNTHAVLVALKRN [PRE5] | 1.2 ± 0.037 | 1.45 ± 0.039 | 1.15 ± 0.093 | 1.21 ± 0.033
SEDSAVFKATSSTDEES [FAS1] | 3.03 ± 0.1 | 3.21 ± 0.11 | 2.93 ± 0.073 | 2.98 ± 0.067
DEAEGRFEVINNETEQL [SMC1] | 2.07 ± 0.072 | 2.56 ± 0.076 | 3.04 ± 0.14 | 2.82 ± 0.1
LALGSHNKLIQFGNACI [SSN2] | 2.13 ± 0.13 | 1.6 ± 0.087 | 2.2 ± 0.13 | 1.28 ± 0.089
TLDKPNAEATKEEFSSA [CSE2] | 2.99 ± 0.11 | 3.12 ± 0.1 | 3.23 ± 0.064 | 3.13 ± 0.069
MKTPSLTVYLEPGHAAD [RPO21] | 3.01 ± 0.092 | 2.7 ± 0.079 | 2.9 ± 0.059 | 3 ± 0.073
NLETLVTTKDDLSGADI [RPT2] | 3.15 ± 0.067 | 3.34 ± 0.085 | 3.27 ± 0.037 | 3.34 ± 0.057
KVKLFHGILDDLETSLS [MED2] | 3.17 ± 0.084 | 3.09 ± 0.075 | 3.14 ± 0.072 | 3.36 ± 0.055
MEMIENRTMDGKPVSLP [FAS1] | 3.38 ± 0.15 | 3.24 ± 0.22 | 2.75 ± 0.16 | 3.39 ± 0.096
ANVIKALAFCEIGITQQ [RRP4] | 1.36 ± 0.07 | 2 ± 0.079 | 1.76 ± 0.16 | 2.26 ± 0.075
WSFDLPEMSNLYRLSTP [PRP8] | 2.71 ± 0.049 | 2.71 ± 0.04 | 2.59 ± 0.038 | 2.67 ± 0.043
SWVQPRIISGDQITKMK [RPN9] | 3.76 ± 0.26 | 3.27 ± 0.12 | 2.94 ± 0.14 | 3.56 ± 0.2
